Test system: STAT6
Experiment: Screening of full-length cDNA clones for promotion of STAT6 activation (luciferase reporter N4×8-luc)
Type: cell-based
Conditions: NIH3T3 cells cotransfected with N4×8-luc reporter and cDNA plasmid; 48 h culture, then mouse IL-4 0.5 ng/ml for 6 h
In short: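 NIH3T3 cells cotransfected with STAT6-responsive N4×8-luc reporter (100 ng) and full-length cDNA, cultured 48 h, then given mouse IL-4 at 0.5 ng/ml final for 6 h. Luciferase activity compared with reporter plus null-vector control.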

Molecule	Activity = (luciferase activity of the gene of each SEQ ID NO:)/(luciferase activity of pME18S-FL3)
349 (nucleic acid, listed as Homo sapiens, CDS (95)..(610)) CCCCCCCGAGCGCCGCTCCGGCTGCACCGCGCTCGCTCCGAGTTTCAGGCTCGTGCTAAGCTAGCGCCGTCGTCGTCTCCCTTCAGTCGCCATCATGATTATCTACCGGGACCTCATCAGCCACGATGAGATGTTCTCCGACATCTACAAGATCCGGGAGATCGCGGACGGGTTGTGCCTGGAGGTGGAGGGGAAGATGGTCAGTAGGACAGAAGGTAACATTGATGACTCGCTCATTGGTGGAAATGCCTCCGCTGAAGGCCCCGAGGGCGAAGGTACCGAAAGCACAGTAATCACTGGTGTCGATATTGTCATGAACCATCACCTGCAGGAAACAAGTTTCACAAAAGAAGCCTACAAGAAGTACATCAAAGATTACATGAAATCAATCAAAGGGAAACTTGAAGAACAGAGACCAGAAAGAGTAAAACCTTTTATGACAGGGGCTGCAGAACAAATCAAGCACATCCTTGCTAATTTCAAAAACTACCAGTTCTTTATTGGTGAAAACATGAATCCAGATGGCATGGTTGCTCTATTGGACTACCGTGAGGATGGTGTGACCCCATATATGATTTTCTTTAAGGATGGTTTAGAAATGGAAAAATGTTAACAAATGTGGCAATTATTTTGGATCTATCACCTGTCATCATAACTGGCTTCTGCTTGTCATCCACACAACACCAGGACTTAAGACAAATGGGACTGATGTCATCTTGAGCTCTTCATTTATTTTGACTGTGATTTATTTGGAGTGGAGGCATTGTTTTTAAGAAAAACATGTCATGTAGGTTGTCTAAAAATAAAATGCATTTAAACTCATTTGAGAG	24.3
345 (nucleic acid, listed as Homo sapiens, CDS (19)..(768)) CCAGCCAACGAGCGGAAAATGGCAGACAATTTTTCGCTCCATGATGCGTTATCTGGGTCTGGAAACCCAAACCCTCAAGGATGGCCTGGCGCATGGGGGAACCAGCCTGCTGGGGCAGGGGGCTACCCAGGGGCTTCCTATCCTGGGGCCTACCCCGGGCAGGCACCCCCAGGGGCTTATCCTGGACAGGCACCTCCAGGCGCCTACCATGGAGCACCTGGAGCTTATCCCGGAGCACCTGCACCTGGAGTCTACCCAGGGCCACCCAGCGGCCCTGGGGCCTACCCATCTTCTGGACAGCCAAGTGCCCCCGGAGCCTACCCTGCCACTGGCCCCTATGGCGCCCCTGCTGGGCCACTGATTGTGCCTTATAACCTGCCTTTGCCTGGGGGAGTGGTGCCTCGCATGCTGATAACAATTCTGGGCACGGTGAAGCCCAATGCAAACAGAATTGCTTTAGATTTCCAAAGAGGGAATGATGTTGCCTTCCACTTTAACCCACGCTTCAATGAGAACAACAGGAGAGTCATTGTTTGCAATACAAAGCTGGATAATAACTGGGGAAGGGAAGAAAGACAGTCGGTTTTCCCATTTGAAAGTGGGAAACCATTCAAAATACAAGTACTGGTTGAACCTGACCACTTCAAGGTTGCAGTGAATGATGCTCACTTGTTGCAGTACAATCATCGGGTTAAAAAACTCAATGAAATCAGCAAACTGGGAATTTCTGGTGACATAGACCTCACCAGTGCTTCATATACCATGATATAATCTGAAAGGGGCAGATTAAAAAAAAAAAAAAAGAATCTAAACCTTACATGTGTAAAGGTTTCATGTTCACTGTGAGTGAAAATTTTTACATTCATCAATATCCCTCTTGTAAGTCATCTACTTAATAAATATTACAGTGAAAG	3.7
327 (nucleic acid, listed as Homo sapiens, CDS (72)..(1046)) TGTCGACGCCGCTGCCACCGCCTGCCTGAGAGAAGTCGTCGCGGCCGACCCCGTCGCCTCCGCCGGCTACCATGTCCGCCCAGGCGCAGATGCGGGCCCTGCTGGACCAGCTCATGGGCACGGCTCGGGACGGAGACGAAACCAGACAAAGGGTCAAGTTTACAGATGACCGTGTCTGCAAGAGTCACCTTCTGGACTGCTGCCCCCATGACATCCTGGCTGGGACGCGCATGGATTTAGGAGAATGTACCAAAATCCACGACTTGGCCCTCCGAGCAGATTATGAGATTGCAAGTAAAGAAAGAGACCTGTTTTTTGAATTAGATGCAATGGATCACTTGGAGTCCTTTATTGCTGAATGTGATCGGAGAACTGAGCTCGCCAAGAAGCGGCTGGCAGAAACACAGGAGGAAATCAGTGCGGAAGTTTCTGCAAAGGCAGAAAAAGTACATGAGTTAAATGAAGAAATAGGAAAACTCCTTGCTAAAGCCGAACAGCTAGGGGCTGAAGGTAATGTGGATGAATCCCAGAAGATTCTTATGGAAGTGGAAAAAGTTCGTGCGAAGAAAAAAGAAGCTGAGGAAGAATACAGAAATTCCATGCCTGCATCCAGTTTTCAGCAGCAAAAGCTGCGTGTCTGCGAGGTCTGTTCAGCCTACCTTGGTCTCCATGACAATGACCGTCGCCTGGCAGACCACTTCGGTGGCAAGTTACACTTGGGGTTCATTCAGATCCGAGAGAAGCTTGATCAGTTGAGGAAAACTGTCGCTGAAAAGCAGGAGAAGAGAAATCAGGATCGCTTGAGGAGGAGAGAGGAGAGGGAACGGGAGGAGCGTCTGAGCAGGAGGTCGGGATCAAGAACCAGAGATCGCAGGAGGTCACGCTCCCGGGATCGGCGTCGGAGGCGGTCAAGATCTACCTCCCGAGAGCGACGGAAATTGTCCCGGTCCCGGTCCCGAGATAGACATCGGCGCCACCGCAGCCGTTCCCGGAGCCACAGCCGGGGACATCGTCGGGCTTCCCGGGACCGAAGTGCGAAATACAAGTAACTACTCTGACTCCTTCGGTAGCTGCAACCAGGGGTTCTCCAGAGAGCGGGCATCCAGAGAGGAGTCCTGGGAGAGCGGGCGGAGCGAGCGAGGGCCCCCGGACTGGAGGCTTGAGAGCTCCAACGGGAAGATGGCTTCACGGAGGTCAGAAGAGAAGGAGGCCGGCGAGATCTGAACCCGTCTCCCGGGTGCTGTAAATAGTCTGATAAACGTTCACACAGTCTAAAATTACCCTTTATATTTGCTGAATACAACTCATCTTTTGTAGTTTAAAATTTCTATTGTTTTGGAGCTAGCTGTGAGTTTCTAGAAGTGTACAGAGTTGCTCCTGTGTTCCCGGGTCATGTTGAGTAGGAATAAATAAATCTGATGCTGCCTCCTGAGGCTGCGGGGGGTTTCTGC	5.3

Source: patent US20030092616A1, “STAT6 activation gene” (priority 2001, published 2003)
